# Laboratory results taken from the DeepSol protein solubility set.
# Assay: soluble on expression in E. coli; label from the status in PepcDB or PDB records
row,Sequence,soluble on expression in E. coli
1,GQYKIQIFEKGDFSGQMYETTEDCPSIMEQFHMREIHSCKVLEGVWIFYELPNYRGRQYLLDKKEYRKPIDWGAASPAVQSFRRIVE,soluble
2,MPTFRSNIVVFNLIARRAFTTTSTKNMGFVEKVRLLDYWKIQDSALQSEFPRSRLVLMVDRRLLVTKDQPDVQMVELSFDDLKQRLGEYGLQFDLSNSCLLDALSTDVDMIPLFGTSIDAADPPEDSPISKKEVLKQLGNSLGGRFTDIRMAMLTMREERQRNLLAKFQSLTKWASIYRRCPKCAAALKMRSSKSGAECVTCQRVYYPTFSPVSITLITDPTNEHALLVRHRGSAGGVFTAVAGFAHSGESMAECARREIAEEVGIEVDSIRSLDMSQPWPMPDSSLMIAHVAVAKIDQKISVCPDELETAQWFTRHQVKEALTTTLADPLLKNLPRTLDDRQTLHYIPPAGAIAHQMIRQWVDGKLENHNSRI,not soluble
3,MGSDKIHHHHHHMKVALLSPIAWRTPPRHYGPWERVVSLIAEGLVKKGVDVTLFATGDSKTAGRLEYICPIPYEENPNMDAKVWEAMHIAHLFEQAHKFDIIHNNYDFLPLSYSRQVDTPMITTIHGFSSPKILPIYREYNRNNYYVSISNADRSPDLDYYATVYHGIDLNELTLKLNAGSYLLYFGRIHPDKGTAQAIEIARKSDMQLLIAGIIQDKQYFNQQIYPRIDNKKVIYLGSVGPAKRDELLGNALALLHPIHFNEPFGLSVIEAMACGTPVIAFNKGSMPEVIKDGETGFLVDNVEMACEKLGSINKIKRANCRYWVEENFSQERMVSDYLSLYQEIIKGGKLPVRTPSLSGRCK,not soluble
4,AHHHHHHGSAKRVHLFDWHKEHAKKIEEFAGWEMPIWYSSIKEEHLAVRNAVGVFDVSHMGEILFKGKDALKFLQYTTTNDISKPPAISGTYTLVLNERGAIKDETLVFNMGNNEYLMICDADAFEKLYAWFTYLKKTIEQFTKLDLEIELKTYDIAMFAVQGPKARDLAMDLFGIDINEMWWFQGRWVELDGIKMLLSRSGYTGENGFEVYIEDLNPYHPDEEKRGKPEKALHVWERILEEGQKYGIKPAGLGARDTLRLEAGYTLYGNDTKELQLLSTDIDEVTPLQANLEFAIYWDKDFIGKDALLKQKEKGLGRKLVHFKMLEKSVPREGYKVYANGELIGEVTSGTLSPLLNIGIGIAFVKEEYAKPGVEIEIDIRGTRKKAITVTPPFYDPKKYGLFREE,soluble
5,MAHHHHHHMYEVYYLNEHDEFEKKKKKNEEIQSSLILKNHAISSEKKSKLVKHNIYEGGYTIWECTWDMLKFFHKEGFDFNNKQVLELGCGHGLVGIKVLLDNGNVVFQELNKEVINDVLLPNIKKNLKMKLKKKKLKENKHYMKINNDKITCYVINKPWHKLNSKLQKKKLNCFDFILGNEILYRKENYYHILKILKKNLKKGGKAYFGSKSYYFGFEDGTGSNSFVTYVNNNEHFNFVARIIQTTTGKSVYSKDIIEVTFSPNND,not soluble
6,MAGDPMEAIMKKLIGIATAAVFGLGIFTSSANAETVVTTDVLNVRENPTTESKVVGKLLNGNKIDVQNTENGWSKITLDGKDAFVSAEFTKSIYYVTANVLNVRAEANTNSEVLGKLKKDDVIETTNQVQNEWLQFEYNGKTAYVHVPFLTGTAPVIEKQETTAPAKAAAPAKAQAPVAQAKPAAKPAVKAAETNTPSGGRELTVVATAYTAHPSENGGTYGGRVLTAMGHDLTANPNMKMIAVDPKVIPLGSKVWVEGYGEAIAGDTGGAIKGTRIDILLGSDSAAQKWGRKTVKVKILKLEHHHHHH,not soluble
7,MSLYKVYGDYQSGNCYKVKLMLSLLGRPYEWHPVDILKGETETPEFLAMNPNGKVPVLELEDGSYLWESNAILNYLADGSEFLPSEPRLRTQVLQWQFFEQYSHEPYIAVARFIQFYLGLPDERLDEYRKLHKGGYKALKVMERQLQMTPYLVGEQYSIADVALYAYTHVAQQGGFDLADYPAVRAWLERVSSHPRHVPMVGEGHHHHHH,soluble
8,GPGSMSALNDSRTTSGRPLPGGKPYALRPEGIPPSLCGDNVGASRGGDSIGDFKTAFEQPHSIDSEEEGDVEAASSPEQRLRRVQRDVYRHERQIASLFSEKHEHCEHLATVYKELEKVLRKIQLAPLEDLKGHAASPSASTFCAPSSDEDGYAASSTVSALASSLQQRFHQVLQQHQDRVYDVLVDYRQQINKSEYETGRRLCAIEEAIAQIQSDVRELQHTASIQVEELRHVQQDVRQRVEAVAVQQEAQRAALDATREARDTKAAKLLSKIQDDVAGLRADAKAARTQQIESAKDVEEQIRSLLSAQHRTEEALGAHSASIAQLQNQDSLEGAFHEVKDWLGDLEKRMVSRGELLQWTASLQSEIHQMRRVTGGVLSHTIEPTAPGQDA,soluble
9,REPLSFSLFSQPECVEQPERLAQVFALLVNAHYQTSPNDLFALLQDEAMTLFVAYQGEVCVGCVLAVREGELDAPTIEAIQLGTRRPKGHLTPVTLANQLGISQAARQSCWRILRIAVHPDCQRQGIGSQLLTHFIAQHHADYYATSFGVSEDLLPFWLANHFVPIKLGSHRDQASGCYSLLMVRG,not soluble
10,MSEKWIPEIMTPLKQDIVKMPEIIRQASGIKIFGRKIKSIIFTTDIAIIRNTDAQAVIAVYPFTPHPAITKGIIEAADIPVFSGVGGGLTQGMRSAYMSLFAEAQGSMGVVLNGPTPIETIKMVDEAIDIPIISTVTSIHTPIDEKLAAGVDMINISAGKDTAATVRYFRGKYPELPIIATGGPTESSIHETIIAGANAITYTPPSNGELFSKKMKKYREQEKATDEE,soluble
11,KNNPDPTIYPVLDWNDIKFQDVIGEGNFGQVLKARIKKDGLRMDAAIKRMKEYASKDDHRDFAGELEVLCKLGHHPNIINLLGACEHRGYLYLAIEYAPHGNLLDFLRKSRVLETDPAFAIANSTASTLSSQQLLHFAADVARGMDYLSQKQFIHRDLAARNILVGENYVAKIADFGLSRGQEVYVKKTMGRLPVRWMAIESLNYSVYTTNSDVWSYGVLLWEIVSLGGTPYCGMTCAELYEKLPQGYRLEKPLNCDDEVYDLMRQCWREKPYERPSFAQILVSLNRMLEERKTYVNTTLYEKFTYAGIDCSAEEAA,soluble
12,MKQFDKHADAYNVVRGKIAYPDSLYRNLAERAPAREAALDIGCGNGVSTVRLQPWFRYVEGSDLGEALIAKARENYPEIRFSVSPAETFAPQRRFDLVTSATSFYWMDRKQVLTRMADWLTPGGLFCAYKYDFPIAYGPLRDFIEHELVNKWAKHRDPRLTRYDDTLEIMGSCPHLRDCRREVFANIIFLSPEEVALFFLSTSYVTRYIEQEGGEDYADRFIAAVREIESAPQVAVNFDIHAFTALNR,not soluble
13,MSLESVGDVLKRQPSRFHYQDLVQKIMKDPDVAAFVQQESLNQDELNRSISKFNQYITERDKFLRGDTDYIAKGYKPILVMNHGYADVSYEETPELIAAEKEAAIKKRLNLINFPSSLKNVSFLDVYRDDVQRLTVLKRMIEFVNDYPNNLKGLYLYGDFGVGKSFMVAALAHDLSEKRGVSSTLLHYPSFVIDVKNAIGDGNVKTLVDEIKLSEVLILDDIGAEQSTAWVRDEILQVILQYRMQENLPTFFTSNFNFEDLEKHFAKGKNGNDETWEARRVMERIRYLAEETRLEGVNRREGHHHHHH,soluble
14,MSLIEENLKQKIHDKFVAAKKNGHLKVTHAESKKLKDPQTTTQYWVTFAPSLALKPDANKNSDSKAEDPFANPDEELVVTEDLNGDGEYKLLLNKFPVVPEHSLLVTSEFKDQRSALTPSDLMTAYNVLCSLQGDKDDDVTCERYLVFYNCGPHSGSSQDHKHLQIMQMPEKFIPFQDVLCNGKDHFLPTFNAEPLQDDKVSFAHFVLPLPESSDQVDEDLLAMCYVSLMQRALTFFQDWTNESPELTKSYNVLLTKKWICVVPRSHAKSGPPLMLNINSTGYCGMILVKDREKLENLTEDPHLVDKSLLQCGFPNTAGQKPTEYHYEGHHHHHH,soluble
15,MGSDKIHHHHHHMLLKNASFYDDEVLKRADIRLKDSLITEIKENLSPINNEEVIECRDLFVLPSFIDLSVTGLEGYENLKQKAFKGGVGLLNVFNCDQSGIKNIMAIKNNQLADIATLKNKGGEILIAPSDAFLELISHYAKSYNLPLLISLENSFEALNSGELAYELGQNFVENAFENTRLVRFMEVSRALQIPVLLDKVNSITTLKLIKAFNDLGAKLQAQTPLSHLVLDESVYEDYEPRFKIAPPLRDKESQNALKEALKNNEIAMLTSLHASKNSNAQLFEESAFGCESIEDAFSVAYTFLVQKKVISFQQLIKVMAINQAKFLKLNAGEVKENQLANLMIVDLNAQTRVSNQNSPFYGLELYGEVQRMILKGQTTFIKENACKKS,not soluble
16,MSQEIQPQATQLQPFSQACENNKVPILAVLKSAFANTTRVLEIGSGTGQHAVYFATNLPQLFWQTSDQAEYLEGIKARCLLQGHQLGINNLGFPITLDVTAPWPVNGTHIDAVFSANTLHIMSKSMVEAFFNGLGEYLPQLNTLCIYGPFNYQGHYTSDSNRQFDHFLKQRDSESGIRDIEWIIALAQAQGLTLVEDIAMPTNNRLLHFKHLLALEHHHHHH,soluble
17,LPKPGVYYFPWEVSDGHVPEGSTLRTFGRLYLYDMARSLMTLAAPQKPDQCQLLVCTNLVEPFEAHVNFLYMVLGDLERMEGGAFVVRARLLTCVEGMDLSLLEKAILEQRRHLQKRQQPIGDASTLQTPTPAPQSIPSD,not soluble
18,MSLAQIDFRKKINWHRRYRSPQGVKTEHEILRIFESDRGRIINSPAIRRLQQKTQVFPLERNAAVRTRLTHSMEVQQVGRYIAKEILSRLKELKLLEAYGLDELTGPFESIVEMSCLMHDIGNPPFGHFGEAAINDWFRQRLHPEDAESQPLTDDRCSVAALRLRDGEEPLNELRRKIRQDLCHFEGNAQGIRLVHTLMRMNLTWAQVGGILKYTRPAWWRGETPETHHYLMKKPGYYLSEEAYIARLRKELNLALYSRFPLTWIMEAADDISYCVADLEDAVEKRIFTVEQLYHHLHEAWGQHEKGSLFSLVVENAWEKSRSNSLSRSTEDQFFMYLRVNTLNKLVPYAAQRFIDNLPAIFAGTFNHALLEDASECSDLLKLYKNVAVKHVFSHPDVERLELQGYRVISGLLEIYRPLLSLSLSDFTELVEKERVKRFPIESRLFHKLSTRHRLAYVEAVSKLPSDSPEFPLWEYYYRCRLLQDYISGMTDLYAWDEYRRLMAVEQEGHHHHHH,soluble
19,SAPFDVIGPQEPILAVVGEDAELPCRLSPNVSAKGMELRWFREKVSPAVFVSREGQEQEGEEMAEYRGRVSLVEDHIAEGSVAVRIQEVKASDDGEYRCFFRQDENYEEAIVHLKVAALGSDPHISMKVQESGEIQLECTSVGWYPEPQVQWRTHRGEEFPSMSESRNPDEEGLFTVRASVIIRDSSMKNVSCCIRNLLLGQEKEVEVSIPASFFPRLT,not soluble
20,MTTILSVRDVKKVIGKKTIVENISFDVKQGEVFGFLGPNGAGKTTTIRMLVGLIKETEGTISIGGYSIKENFREAMRQIGSIVENPELYTYLTGWENLKQFARMLGGISDERIIEIAHMVHLDERIHDKVKTYSLGMKQRLGIAQALLGNPKLLILDEPTNGLDPAGIRELREFIHKLVKEENMSVFISSHLLSEVQMICDRVAIIHKGKMITVAKVEELIKTASDRVEWIVTPISKTKDMLVDAEEVREVSIEGDRLLCRMHISSISNWNKTFVENGIDVHSVKELVFTLEDLFIELTRGEQHA,not soluble
